In patent US20230140797A1 (published 2023):
Read-outs that look alike come from different tables or passages of the source.

T1: human FcγRIIa type H (131His) extracellular domain with C-terminal His tag (human, UniProt P12318 34-217)
T1 sequence (looked up): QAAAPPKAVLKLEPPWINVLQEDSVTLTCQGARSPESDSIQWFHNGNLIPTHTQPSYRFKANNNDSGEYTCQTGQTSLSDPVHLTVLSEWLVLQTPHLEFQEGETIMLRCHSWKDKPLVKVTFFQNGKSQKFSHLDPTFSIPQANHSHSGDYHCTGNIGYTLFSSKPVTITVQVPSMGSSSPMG

T2: human FcγRIIb extracellular domain with C-terminal His tag (human, UniProt P31994 43-217)
T2 sequence (looked up): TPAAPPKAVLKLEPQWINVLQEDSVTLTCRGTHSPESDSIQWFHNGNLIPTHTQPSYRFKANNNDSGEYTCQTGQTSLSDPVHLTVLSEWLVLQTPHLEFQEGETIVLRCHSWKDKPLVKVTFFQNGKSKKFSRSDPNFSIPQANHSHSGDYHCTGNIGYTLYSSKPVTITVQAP

T3: human FcγRIIb extracellular domain with C-terminal His tag (human, UniProt P31994 43-217)
T3 sequence (looked up): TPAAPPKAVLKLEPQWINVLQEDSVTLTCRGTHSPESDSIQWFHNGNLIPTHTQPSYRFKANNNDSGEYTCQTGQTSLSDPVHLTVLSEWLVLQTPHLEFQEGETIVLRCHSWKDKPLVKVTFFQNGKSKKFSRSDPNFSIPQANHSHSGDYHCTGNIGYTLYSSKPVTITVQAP


Tests used:
[1] = molecular target: T1, human FcγRIIa type H (131His) …; assay: SPR
[2] = molecular target: T2, human FcγRIIb extracellular domain with …; assay: ratio of SPR KDs
[3] = molecular target: T2, human FcγRIIb extracellular domain with …; assay: ratio of SPR KDs; remark: listed apart in the source
[4] = molecular target: human FcγRIa extracellular domain with C-terminal His tag (human, UniProt P12314 16-292); assay: SPR
Chain of human FcγRIa extracellular domain with C-terminal His tag (P12314 16-292): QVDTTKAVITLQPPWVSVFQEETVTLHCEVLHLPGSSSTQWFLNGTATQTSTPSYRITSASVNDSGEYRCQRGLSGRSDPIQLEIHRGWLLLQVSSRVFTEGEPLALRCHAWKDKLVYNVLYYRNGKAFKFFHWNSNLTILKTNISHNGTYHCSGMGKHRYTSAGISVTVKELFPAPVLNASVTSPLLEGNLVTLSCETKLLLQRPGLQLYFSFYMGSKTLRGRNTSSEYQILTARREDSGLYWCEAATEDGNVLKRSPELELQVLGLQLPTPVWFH

[5] = molecular target: T2, human FcγRIIb extracellular domain with …; assay: ratio of SPR KDs; remark: listed apart in the source
[6] = molecular target: T1, human FcγRIIa type H (131His) …; assay: SPR; remark: listed apart in the source
[7] = molecular target: human FcγRIIIa type V extracellular domain with C-terminal His tag (human, UniProt P08637 17-208); assay: SPR
Chain of human FcγRIIIa type V extracellular domain with C-terminal His tag (P08637 17-208 F176V): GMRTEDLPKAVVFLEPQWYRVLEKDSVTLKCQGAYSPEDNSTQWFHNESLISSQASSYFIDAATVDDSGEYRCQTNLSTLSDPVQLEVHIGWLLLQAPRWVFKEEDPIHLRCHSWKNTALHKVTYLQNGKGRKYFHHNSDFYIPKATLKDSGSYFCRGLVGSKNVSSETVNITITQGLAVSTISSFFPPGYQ

[8] = molecular target: T3, human FcγRIIb extracellular domain with …; assay: SPR
[9] = molecular target: T3, human FcγRIIb extracellular domain with …; assay: SPR; remark: listed apart in the source

Binder | KD (IIaR)/KD (IIb) [2] | KD (IIb) of parent polypeptide/KD (IIb) of altered polypeptide [3] | Kd [4] [nM] | also measured
IL6R-BP498/IL6R-L (antibody, human IgG1, kappa) heavy: QVQLQESGPGLVKPSETLSLTCAVSGHSISHDHAWSWVRQPPGEGLEWIGFISYSGITNYNPSLQGRVTISRDNSKNTLYLQMNSLRAEDTAVYYCARSLARTTAMDYWGEGTLVTVSSASTKGPSVFPLAPSSKSTSGGTAALGCLVKDYFPEPVTVSWNSGALTSGVHTFPAVLQSSGLYSLSSVVTVPSSSLGTQTYICNVNHKPSNTKVDKKVEPKSCDKTHTCPPCPAPDLLGDDSVFLFPPKPKDTLMISRTPEVTCVVIDVAEEDGEVKFNWYVDGVEVHNAKTKPREEQYNSTYRVVSVLTVLHQDWLNGKEYKCKVSNKALPRPIEKTISKAKGQPREPQVYTLPPSRDELTKNQVSLTCLVKGFYPSDIAVEWESNGQPENNYKTTPLVLDSDGSFFLYSKLTVDKSRWQQGNVFSCSVMHEALHNHYTQESLSLSP light: not shown | 30.3 | 1870 |  | 
IL6R-BP535/IL6R-L (antibody, human IgG1, kappa) heavy: QVQLQESGPGLVKPSETLSLTCAVSGHSISHDHAWSWVRQPPGEGLEWIGFISYSGITNYNPSLQGRVTISRDNSKNTLYLQMNSLRAEDTAVYYCARSLARTTAMDYWGEGTLVTVSSASTKGPSVFPLAPSSKSTSGGTAALGCLVKDYFPEPVTVSWNSGALTSGVHTFPAVLQSSGLYSLSSVVTVPSSSLGTQTYICNVNHKPSNTKVDKKVEPKSCDKTHTCPPCPAPDLLGDDSVFLFPPKPKDTLMISRTPEVTCVVIDVGEEDGEVKFNWYVDGVEVHNAKTKPREEQDNSTYRVVSVLTVLHQDWLNGKEYKCKVSNKGLPRPIEKTISKAKGQPREPQVYTLPPSRDELTKNQVSLTCLVKGFYPSDIAVEWESNGQPENNYKTTPMVLDSDGSFFLYSKLTVDKSRWQQGNVFSCSVMHEALHNHYTQESLSLSP light: not shown |  |  | 1.1 | 
IL6R-BP488/IL6R-L (antibody, human IgG1, kappa) heavy: QVQLQESGPGLVKPSETLSLTCAVSGHSISHDHAWSWVRQPPGEGLEWIGFISYSGITNYNPSLQGRVTISRDNSKNTLYLQMNSLRAEDTAVYYCARSLARTTAMDYWGEGTLVTVSSASTKGPSVFPLAPSSKSTSGGTAALGCLVKDYFPEPVTVSWNSGALTSGVHTFPAVLQSSGLYSLSSVVTVPSSSLGTQTYICNVNHKPSNTKVDKKVEPKSCDKTHTCPPCPAPDLLGDDSVFLFPPKPKDTLMISRTPEVTCVVIDVAEEDGEVKFNWYVDGVEVHNAKTKPREEQDNSTYRVVSVLTVLHQDWLNGKEYKCKVSNKALPRPIEKTISKAKGQPREPQVYTLPPSRDELTKNQVSLTCLVKGFYPSDIAVEWESNGQPENNYKTTPPVLDSDGSFFLYSKLTVDKSRWQQGNVFSCSVMHEALHNHYTQESLSLSP light: not shown |  |  |  | KD (IIaH)/KD (IIb) [5]: 865; Kd [1]: 1800 nM
IL6R-BP556/IL6R-L (antibody, human IgG1, kappa) heavy: QVQLQESGPGLVKPSETLSLTCAVSGHSISHDHAWSWVRQPPGEGLEWIGFISYSGITNYNPSLQGRVTISRDNSKNTLYLQMNSLRAEDTAVYYCARSLARTTAMDYWGEGTLVTVSSASTKGPSVFPLAPSSKSTSGGTAALGCLVKDYFPEPVTVSWNSGALTSGVHTFPAVLQSSGLYSLSSVVTVPSSSLGTQTYICNVNHKPSNTKVDKKVEPKSCDKTHTCPPCPAPELLGDDSVFLFPPKPKDTLMISRTPEVTCVVIDVGEEDGEVKFNWYVDGVEVHNAKTKPREEQDNSTYRVVSVLTVLHQDWLNGKEYKCKVSNKALPRPIEKTISKAKGQPREPQVYTLPPSRDELTKNQVSLTCLVKGFYPSDIAVEWESNGQPENNYKTTPPVLDSDGSFFLYSKLTVDKSRWQQGNVFSCSVMHEALHNHYTQESLSLSP light: not shown |  |  | 49 | KD (IIaR)/KD (IIb) [8]: 35.4; KD (IIaH)/KD (IIb) [9]: 692
BP549 (antibody, human IgG1, kappa) heavy: QVQLQESGPGLVKPSETLSLTCAVSGHSISHDHAWSWVRQPPGEGLEWIGFISYSGITNYNPSLQGRVTISRDNSKNTLYLQMNSLRAEDTAVYYCARSLARTTAMDYWGEGTLVTVSSASTKGPSVFPLAPSSKSTSGGTAALGCLVKDYFPEPVTVSWNSGALTSGVHTFPAVLQSSGLYSLSSVVTVPSSSLGTQTYICNVNHKPSNTKVDKKVEPKSCDKTHTCPPCPAPELLGDDSVFLFPPKPKDTLMISRTPEVTCVVVDVGEEDGEVKFNWYVDGVEVHNAKTKPREEQYNSTYRVVSVLTVLHQDWLNGKEYKCKVSNKALPRPIEKTISKAKGQPREPQVYTLPPSRDELTKNQVSLTCLVKGFYPSDIAVEWESNGQPENNYKTTPPVLDSDGSFFLYSKLTVDKSRWQQGNVFSCSVMHEALHNHYTQESLSLSP light: not shown |  |  | 1800 | KD (IIaR)/KD (IIb) [8]: 35.9; KD (IIaH)/KD (IIb) [9]: 696
IL6R-BP496/IL6R-L (antibody, human IgG1, kappa) heavy: QVQLQESGPGLVKPSETLSLTCAVSGHSISHDHAWSWVRQPPGEGLEWIGFISYSGITNYNPSLQGRVTISRDNSKNTLYLQMNSLRAEDTAVYYCARSLARTTAMDYWGEGTLVTVSSASTKGPSVFPLAPSSKSTSGGTAALGCLVKDYFPEPVTVSWNSGALTSGVHTFPAVLQSSGLYSLSSVVTVPSSSLGTQTYICNVNHKPSNTKVDKKVEPKSCDKTHTCPPCPAPDLLGDDSVFLFPPKPKDTLMISRTPEVTCVVIDVAEEDGEVKFNWYVDGVEVHNAKTKPREEQDNSTYRVVSVLTVLHQDWLNGKEYKCKVSNKALPAPIEKTISKAKGQPREPQVYTLPPSRDELTKNQVSLTCLVKGFYPSDIAVEWESNGQPENNYKTTPPVLDSDGSFFLYSKLTVDKSRWQQGNVFSCSVMHEALHNHYTQESLSLSP light: not shown |  | 166 |  | 

Further lines, with some results ahead:

KD (IIaR)/KD (IIb) [2] | KD (IIb) of parent polypeptide/KD (IIb) of altered polypeptide [3] | Kd [4] [nM] | Binder | also measured
33.3 |  |  | IL6R-BP487/IL6R-L (antibody, human IgG1, kappa) heavy: QVQLQESGPGLVKPSETLSLTCAVSGHSISHDHAWSWVRQPPGEGLEWIGFISYSGITNYNPSLQGRVTISRDNSKNTLYLQMNSLRAEDTAVYYCARSLARTTAMDYWGEGTLVTVSSASTKGPSVFPLAPSSKSTSGGTAALGCLVKDYFPEPVTVSWNSGALTSGVHTFPAVLQSSGLYSLSSVVTVPSSSLGTQTYICNVNHKPSNTKVDKKVEPKSCDKTHTCPPCPAPDLLGDDSVFLFPPKPKDTLMISRTPEVTCVVIDVAEEDGEVKFNWYVDGVEVHNAKTKPREEQYNSTYRVVSVLTVLHQDWLNGKEYKCKVSNKALPRPIEKTISKAKGQPREPQVYTLPPSRDELTKNQVSLTCLVKGFYPSDIAVEWESNGQPENNYKTTPMVLDSDGSFFLYSKLTVDKSRWQQGNVFSCSVMHEALHNHYTQESLSLSP light: not shown | Kd [1]: 40 nM
38.3 | 1020 |  | IL6R-BP491/IL6R-L (antibody, human IgG1, kappa) heavy: QVQLQESGPGLVKPSETLSLTCAVSGHSISHDHAWSWVRQPPGEGLEWIGFISYSGITNYNPSLQGRVTISRDNSKNTLYLQMNSLRAEDTAVYYCARSLARTTAMDYWGEGTLVTVSSASTKGPSVFPLAPSSKSTSGGTAALGCLVKDYFPEPVTVSWNSGALTSGVHTFPAVLQSSGLYSLSSVVTVPSSSLGTQTYICNVNHKPSNTKVDKKVEPKSCDKTHTCPPCPAPELLGDDSVFLFPPKPKDTLMISRTPEVTCVVIDVAEEDGEVKFNWYVDGVEVHNAKTKPREEQDNSTYRVVSVLTVLHQDWLNGKEYKCKVSNKALPRPIEKTISKAKGQPREPQVYTLPPSRDELTKNQVSLTCLVKGFYPSDIAVEWESNGQPENNYKTTPPVLDSDGSFFLYSKLTVDKSRWQQGNVFSCSVMHEALHNHYTQESLSLSP light: not shown | 
30.3 |  |  | IL6R-BP492/IL6R-L (antibody, human IgG1, kappa) heavy: QVQLQESGPGLVKPSETLSLTCAVSGHSISHDHAWSWVRQPPGEGLEWIGFISYSGITNYNPSLQGRVTISRDNSKNTLYLQMNSLRAEDTAVYYCARSLARTTAMDYWGEGTLVTVSSASTKGPSVFPLAPSSKSTSGGTAALGCLVKDYFPEPVTVSWNSGALTSGVHTFPAVLQSSGLYSLSSVVTVPSSSLGTQTYICNVNHKPSNTKVDKKVEPKSCDKTHTCPPCPAPELLGGDSVFLFPPKPKDTLMISRTPEVTCVVIDVAEEDGEVKFNWYVDGVEVHNAKTKPREEQYNSTYRVVSVLTVLHQDWLNGKEYKCKVSNKALPAPIEKTISKAKGQPREPQVYTLPPSRDELTKNQVSLTCLVKGFYPSDIAVEWESNGQPENNYKTTPPVLDSDGSFFLYSKLTVDKSRWQQGNVFSCSVMHEALHNHYTQESLSLSP light: not shown | KD (IIaH)/KD (IIb) [5]: 670; Kd [6]: 15000 nM; Kd [7]: 30000 nM
